The values below come from paper PMC10570013.

The series addresses Nsp8 NTD (SARS-CoV-2, UniProt P0DTD1). The series is described as follows: NMR.

B1: model dsRNA (dsRNA)
RNA 1: GAUGCUACGCGGUAGUA
RNA 2: GUACUACCGCGUAGCAUC
A word on the Kd: it is a measure of binding affinity in units of concentration. Read a low Kd as a tighter complex. B1 showed a Kd of approximately 14.1 µM.
